# According to US20100196385A1 (AstraZeneca / MedImmune, published 2010):
# B1: 21H3RK (antibody, V domains shown)
# VH: QVQLVQSGAEVKKPGASVKVSCKASGYTFTNYGITWVRQAPGQGPEWMGWISAYNGNTNYAQKLQDRVTVTTDTSTSTAYMELRSLRSDDTAVYYCARDRVPRIPVTTEAFDIWGQGTMVTVSS
# VL: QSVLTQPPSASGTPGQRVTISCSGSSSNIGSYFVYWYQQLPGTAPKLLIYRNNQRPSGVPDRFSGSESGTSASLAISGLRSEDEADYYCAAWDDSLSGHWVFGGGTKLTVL
# notes: also called Mab 21H3RK; Monoclonal 21H3RK
# B2: 21H3RK IgG1 (antibody, V domains shown)
# VH: B1 VH
# VL: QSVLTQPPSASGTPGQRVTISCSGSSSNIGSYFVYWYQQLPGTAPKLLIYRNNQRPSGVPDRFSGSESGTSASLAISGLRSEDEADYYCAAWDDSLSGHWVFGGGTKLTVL
# notes: IgG1; VL is 21H3 VLOP1 (R107K)
# B3: human Notch3/Fc chimera (Fc fusion, UniProt Q9UM47 40-467, looked up)
# chain: APPCLDGSPCANGGRCTQLPSREAACLCPPGWVGERCQLEDPCHSGPCAGRGVCQSSVVAGTARFSCRCPRGFRGPDCSLPDPCLSSPCAHGARCSVGPDGRFLCSCPPGYQGRSCRSDVDECRVGEPCRHGGTCLNTPGSFRCQCPAGYTGPLCENPAVPCAPSPCRNGGTCRQSGDLTYDCACLPGFEGQNCEVNVDDCPGHRCLNGGTCVDGVNTYNCQCPPEWTGQFCTEDVDECQLQPNACHNGGTCFNTLGGHSCVCVNGWTGESCSQNIDDCATAVCFHGATCHDRVASFYCACPMGKTGLLCHLDDACVSNPCHEDAICDTNPVNGRAICTCPPGFTGGACDQDVDECSIGANPCEHLGRCVNTQGSFLCQCGRGYTGPRCETDVNECLSGPCRNQATCLDRIGQFTCICMAGFTGTYCE
# notes: Positive control for Jagged1; also called N3 Fc; Fc part of the bought chimera not given, not described
# Legend:
# [1] = target: T1, human Dll1 (human, UniProt O00548 18-723); experiment: FACS, up to 300 µg/ml, HEK-293 cells stably overexpressing human Dll1
# T1 construct: whole, on cells
# T1 sequence (looked up): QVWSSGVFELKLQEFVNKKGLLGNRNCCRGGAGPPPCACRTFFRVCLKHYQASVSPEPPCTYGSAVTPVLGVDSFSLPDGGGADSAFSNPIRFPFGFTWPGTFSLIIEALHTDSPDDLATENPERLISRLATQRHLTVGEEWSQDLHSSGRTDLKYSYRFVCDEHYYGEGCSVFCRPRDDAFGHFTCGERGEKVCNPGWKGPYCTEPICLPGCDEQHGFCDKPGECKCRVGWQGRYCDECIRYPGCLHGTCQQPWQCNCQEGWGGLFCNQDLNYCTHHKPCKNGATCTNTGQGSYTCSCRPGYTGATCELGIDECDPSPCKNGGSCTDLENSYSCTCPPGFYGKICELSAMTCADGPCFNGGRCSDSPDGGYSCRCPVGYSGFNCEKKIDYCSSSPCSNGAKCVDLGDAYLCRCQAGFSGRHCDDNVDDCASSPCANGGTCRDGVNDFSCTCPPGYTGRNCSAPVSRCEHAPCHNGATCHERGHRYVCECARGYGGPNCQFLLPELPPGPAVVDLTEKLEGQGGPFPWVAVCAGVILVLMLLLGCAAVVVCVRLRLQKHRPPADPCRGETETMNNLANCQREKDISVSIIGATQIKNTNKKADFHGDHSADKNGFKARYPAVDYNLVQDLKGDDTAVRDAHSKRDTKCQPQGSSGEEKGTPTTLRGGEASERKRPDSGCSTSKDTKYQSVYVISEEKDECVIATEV
# [2] = target: T1, human Dll1; experiment: Flow cytometry on HEK293F cells transiently expressing HuDll1; 21H3RK, goat anti-human IgG-FITC
# Text: This specificity is employed to deduce the binding epitope of Mab 21H3RK to human DLL4. Chimeric variants were engineered with portions of the extracellular domain of DLL4 replaced with the corresponding segments of DLL1. […] The resulting variants were cloned into a mammalian expression vector encoding a human cytomegalovirus major immediate early (hCMVie) enhancer, promoter and 5′-untranslated region for transient mammalian expression. The chimeric variants were transiently expressed in HEK293F cells as membrane-bound proteins for flow cytometric characterization with Mab 21H3RK. 48 h post-transfection, HEK293F transfectants were incubated with 1 μg/ml of Mab 21H3RK for 1 h on ice in PBS, washed, then incubated with goat anti-human IgG-FITC (Jackson ImmunoResearch Laboratories, PA) and analyzed with a LSRII flow cytometer (BD Biosciences, CA). The expression levels of all chimeric variants were is monitored by incubating with a mixture of both goat anti-mouse DLL4 (which also recognizes human DLL4) and goat anti-human DLL1 polyclonal antibodies (both from R&D Systems., MN), then detected with porcine anti-goat IgG-PE (Invitrogen, CA).
# [3] = target: T2, full length human DLL4 (human, UniProt Q9NR61 27-685); experiment: FACS competition, unlabeled antibody vs competitor Alexa-647 4B4, HEK293 cells with human DLL4
# T2 construct: whole, on cells; also called native DLL4 expressed in HEK293 cells
# T2 sequence (Q9NR61 27-685): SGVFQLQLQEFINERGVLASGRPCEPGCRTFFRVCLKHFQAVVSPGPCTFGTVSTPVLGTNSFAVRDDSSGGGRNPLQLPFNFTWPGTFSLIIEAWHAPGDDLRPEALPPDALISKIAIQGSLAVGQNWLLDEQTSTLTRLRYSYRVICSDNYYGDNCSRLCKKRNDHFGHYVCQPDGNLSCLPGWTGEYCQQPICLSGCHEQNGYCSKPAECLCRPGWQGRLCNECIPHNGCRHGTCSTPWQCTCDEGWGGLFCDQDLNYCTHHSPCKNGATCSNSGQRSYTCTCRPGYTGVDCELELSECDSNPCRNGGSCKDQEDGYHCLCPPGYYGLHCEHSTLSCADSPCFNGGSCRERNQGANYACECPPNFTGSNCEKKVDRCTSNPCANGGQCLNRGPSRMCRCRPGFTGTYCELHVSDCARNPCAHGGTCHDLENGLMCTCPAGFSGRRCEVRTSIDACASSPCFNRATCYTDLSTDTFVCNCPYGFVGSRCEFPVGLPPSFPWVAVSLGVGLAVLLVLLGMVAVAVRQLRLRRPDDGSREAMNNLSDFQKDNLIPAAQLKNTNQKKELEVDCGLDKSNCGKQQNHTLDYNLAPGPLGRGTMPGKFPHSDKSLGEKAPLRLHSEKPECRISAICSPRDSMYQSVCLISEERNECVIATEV
# Procedure: (§1) The ability of the purified DLL4 antibodies to inhibit the binding of other DLL4 antibodies to human DLL4 was assessed using a FACS assay. Briefly, antibodies were directly labelled with Alexa-647 using a commercially available labelling kit (e.g. Molecular Probes catalog #A30009, A-20186) as per the manufacturer's instructions. To determine the level of cross-competition, unlabelled anti-DLL4 antibodies (final concentration: 10-0.01 μg/ml) diluted in PBS containing 2% FCS were added to DLL4-expressing HEK 293 cells (as described in example 6; 50000 cells/well diluted in PBS containing 2% FCS) and incubated for 1 h at 4° C. Subsequently, Alexa-647 labeled anti-DLL4 antibodies were added at a final concentration of 0.1 μg/ml and plates were incubated for a further 1 h at 4° C. prior to washing and reading on a FACSCalibur instrument. Data that summarizes the ability of unlabeled antibodies (10, 1, 0.1 μg/ml) to compete with labeled 21H3RK for binding to human DLL4 is included in FIG. 3. Additional data that summarizes the ability of unlabeled antibodies to compete with labeled 21H3RK and 4B4 for binding to human DLL4 is included in Table 22.
# [4] = target: T2, full length human DLL4; experiment: FACS competition, unlabeled antibody vs competitor Alexa-647 21H3RK, HEK293 cells with human DLL4
# Procedure: as §1
# [5] = target: T3, human Jagged1 (human, UniProt P78504 34-1218); experiment: FACS, up to 300 µg/ml, HEK-293 cells stably overexpressing human Jagged1
# T3 construct: whole, on cells
# T3 sequence (P78504 34-1218): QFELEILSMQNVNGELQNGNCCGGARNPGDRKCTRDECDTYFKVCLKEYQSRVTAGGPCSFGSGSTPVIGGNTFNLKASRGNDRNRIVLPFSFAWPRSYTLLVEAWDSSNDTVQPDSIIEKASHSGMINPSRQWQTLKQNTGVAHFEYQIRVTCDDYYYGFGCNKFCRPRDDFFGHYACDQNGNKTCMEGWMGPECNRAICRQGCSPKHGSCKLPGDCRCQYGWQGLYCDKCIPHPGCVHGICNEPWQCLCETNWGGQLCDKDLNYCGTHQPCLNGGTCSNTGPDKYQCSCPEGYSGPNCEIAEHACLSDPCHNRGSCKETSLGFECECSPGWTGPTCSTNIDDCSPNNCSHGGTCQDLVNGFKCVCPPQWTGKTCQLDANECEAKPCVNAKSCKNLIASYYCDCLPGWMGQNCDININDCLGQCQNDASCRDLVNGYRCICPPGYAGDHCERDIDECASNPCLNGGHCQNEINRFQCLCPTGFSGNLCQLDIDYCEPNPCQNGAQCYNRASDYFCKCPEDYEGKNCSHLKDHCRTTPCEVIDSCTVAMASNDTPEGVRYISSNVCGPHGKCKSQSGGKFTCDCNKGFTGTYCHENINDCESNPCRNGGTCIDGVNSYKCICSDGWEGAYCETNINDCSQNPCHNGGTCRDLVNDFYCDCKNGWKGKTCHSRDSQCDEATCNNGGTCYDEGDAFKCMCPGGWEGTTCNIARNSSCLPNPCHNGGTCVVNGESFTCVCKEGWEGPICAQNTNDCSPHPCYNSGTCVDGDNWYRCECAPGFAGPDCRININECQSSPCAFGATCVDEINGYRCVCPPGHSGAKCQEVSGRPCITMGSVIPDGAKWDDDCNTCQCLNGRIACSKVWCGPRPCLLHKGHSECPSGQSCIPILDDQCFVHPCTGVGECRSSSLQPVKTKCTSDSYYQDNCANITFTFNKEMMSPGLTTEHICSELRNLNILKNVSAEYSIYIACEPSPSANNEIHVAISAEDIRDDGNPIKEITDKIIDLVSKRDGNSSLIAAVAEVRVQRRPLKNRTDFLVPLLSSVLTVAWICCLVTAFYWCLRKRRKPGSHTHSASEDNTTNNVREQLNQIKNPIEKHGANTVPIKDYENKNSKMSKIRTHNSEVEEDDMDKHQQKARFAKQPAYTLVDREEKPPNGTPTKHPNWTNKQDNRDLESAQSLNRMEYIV
# [6] = target: T2, full length human DLL4; experiment: FACS competition vs human Notch1/Fc, HEK293 cells with human DLL4
# Procedure: (§2) Further experiments were performed on selected antibodies using HEK293 cells that were stably transfected with either human, mouse or cynomolgus monkey DLL4 using retroviral constructs. In these experiments, anti-DLL4 antibodies (final concentration: 10-0.01 μg/ml) diluted in PBS containing 2% FCS were added to DLL4-expressing HEK 293 cells (50000 cells/well diluted in PBS containing 2% FCS) and incubated for 1 h at 4° C. Subsequently, Alexa-647 labeled human, rat or APC labeled mouse Notch1/Fc (e.g. R&D Systems, catalog #3647-TK-050, 1057-TK-050, 5267-TK-050, respectively) was added at a final concentration of 0.01-0.5 μg/ml and plates were incubated for a further 2 h at 4° C. prior to washing and reading on a FACSCalibur instrument.
# [7] = target: T4, full length mouse DLL4 (mouse, UniProt Q9JI71 27-686); experiment: FACS competition vs mouse Notch1/Fc, HEK293 cells with mouse DLL4
# T4 construct: whole, on cells
# T4 sequence (Q9JI71 27-686): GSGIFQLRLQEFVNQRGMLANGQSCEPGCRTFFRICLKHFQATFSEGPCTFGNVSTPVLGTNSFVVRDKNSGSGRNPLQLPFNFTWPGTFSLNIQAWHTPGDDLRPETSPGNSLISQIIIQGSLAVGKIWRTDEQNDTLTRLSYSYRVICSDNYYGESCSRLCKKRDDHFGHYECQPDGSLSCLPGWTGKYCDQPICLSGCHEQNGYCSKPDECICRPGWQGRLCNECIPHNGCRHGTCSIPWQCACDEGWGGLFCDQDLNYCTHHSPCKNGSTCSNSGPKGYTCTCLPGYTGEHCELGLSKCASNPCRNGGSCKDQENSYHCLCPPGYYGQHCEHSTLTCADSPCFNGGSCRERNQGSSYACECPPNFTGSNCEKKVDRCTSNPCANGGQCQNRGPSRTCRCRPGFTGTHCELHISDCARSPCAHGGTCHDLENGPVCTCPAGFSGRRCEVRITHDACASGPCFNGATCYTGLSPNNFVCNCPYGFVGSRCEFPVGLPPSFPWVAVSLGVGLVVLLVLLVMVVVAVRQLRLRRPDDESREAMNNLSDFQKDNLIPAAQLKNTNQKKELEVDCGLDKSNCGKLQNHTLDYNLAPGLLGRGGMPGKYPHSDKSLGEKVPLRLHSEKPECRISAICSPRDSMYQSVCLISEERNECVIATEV
# Procedure: as §2
# [8] = target: T5, human soluble DLL4 (R&D systems catalog #1056-D4-050) (human, UniProt Q9NR61 27-524); experiment: Biacore T100, antibody immobilised, soluble human DLL4 as analyte
# T5 construct: Catalog number as printed; perhaps the same product as #1506-D4; also called antigen DLL4
# T5 sequence (Q9NR61 27-524 limits assumed): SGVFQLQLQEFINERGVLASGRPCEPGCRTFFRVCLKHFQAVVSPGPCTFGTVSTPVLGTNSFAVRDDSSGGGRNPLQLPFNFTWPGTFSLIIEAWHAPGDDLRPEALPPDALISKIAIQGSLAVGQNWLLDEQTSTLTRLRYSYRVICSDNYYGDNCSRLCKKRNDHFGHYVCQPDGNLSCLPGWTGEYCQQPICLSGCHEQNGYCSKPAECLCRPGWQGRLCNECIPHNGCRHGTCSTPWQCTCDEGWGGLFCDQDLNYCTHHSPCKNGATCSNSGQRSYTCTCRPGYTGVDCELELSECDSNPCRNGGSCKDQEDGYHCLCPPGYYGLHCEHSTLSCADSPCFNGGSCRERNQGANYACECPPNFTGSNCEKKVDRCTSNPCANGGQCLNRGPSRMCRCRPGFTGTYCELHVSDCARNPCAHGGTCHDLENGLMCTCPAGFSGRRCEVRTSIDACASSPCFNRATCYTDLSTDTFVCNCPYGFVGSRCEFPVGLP
# Procedure: For Biacore analysis, each purified anti-DLL4 antibody was immobilized on a CM5 sensor chip within a T100 using standard amine coupling. Immobilization levels were kept below 200 RU. The concentration of DLL4 was determined by UV-VIS spectroscopy using a molar absorptivity at 280 nm of 110, 440 M⁻¹cm⁻¹, which was calculated from the sequence of the protein using a method developed by Pace et al. (G. R. Grimsley and C. N. Pace (2003) in Current Protocols in Protein Science (John Wiley & Sons, Inc.), 3.1.1-3.1.9). The antigen DLL4 (R&D systems; human catalog #1056-D4-050 or mouse, catalog #1389-D4-050) was diluted to a starting concentration of 32-64 nM and tested in a 3-fold dilution series in triplicate. The running buffer contained HBS-P with 0.1 mg/ml BSA and binding responses were collected at 23° C. Bound complexes were regenerated with a 15 s pulse of 10 mM of sodium hydroxide. The response data were globally fitted with a simple 1:1 interaction model and Table 20 summarizes the kₐ, kd and KD estimates obtained for the anti-DLL4 antibodies when binding to human soluble DLL4 was assessed.
# [9] = target: T2, full length human DLL4; experiment: FACS titration, HEK293 cells with human DLL4
# Procedure: The binding affinities of the purified antibodies for DLL4 was estimated using is both FACS and BIAcore techniques. […] The cells were then washed and incubated with goat anti-human IgG-Fc-Cy5+5 μg/mL 7-Amino-Actinomycin (7AAD) for 30 minutes at 4° C.
# In this equation, F=mean fluorescence, LT=total molecular mAb concentration, P′=proportionality constant that relates arbitrary fluorescence units to bound mAb, M=cellular concentration in molarity, n=number of receptors per cell, B=background signal, and KD=equilibrium dissociation constant. For each mAb titration curve an estimate for KD is obtained as P′, n, B, and KD are allowed to float freely in the nonlinear analysis. Table 20 summarizes the affinity estimates for the anti-DLL4 antibodies for human and cynomolgus monkey DLL4 derived using the methodology described above
# [10] = target: T3, human Jagged1; experiment: FACS, 0.2 µg/ml, 293T cells with human Jagged1 vs mock
# [11] = target: T3, human Jagged1; experiment: FACS, 5 µg/ml, 293T cells with human Jagged1
# Outline: (§3)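 Antibodies at 5 or 15 μg/ml final in PBS/2% FCS incubated 1 h at 4 °C with transfected cells. Binding taken as the geometric mean fluorescence shift in Jagged1- or Dll1-transfected cells versus mock-transfected cells.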
# [12] = target: T3, human Jagged1; experiment: FACS, 5 µg/ml, 293T cells with human Jagged1 vs mock
# Outline: as §3
# [13] = target: T3, human Jagged1; experiment: FACS, 1 µg/ml, 293T cells with human Jagged1 vs mock
binder,measurement,setting,value
B1,fold over background,[1],< 2.5 fold
same,binding result,[2],no binding (tested: 1 ug/ml (single concentration))
same,IC50,[3],0.223 µg/mL
same,IC50,[4],0.214 µg/mL
same,fold over background,[5],< 2.5 fold
B2,IC50,[6],0.58 nM
same,IC50,[7],42 nM
same,Kd,[8],0.493 nM
same,koff,[8],0.000166 s⁻¹
same,kon,[8],337000 M⁻¹ s⁻¹
same,Kd,[9],0.155 nM
B3,Jagged1/mock ratio,[10],1.96
same,Jagged1/293T X Geo mean,[11],51
same,Jagged1/mock ratio,[12],3.87
same,Jagged1/mock ratio,[13],2.88
